This note sets out measurements from article PMC8079656, “The msaABCR Operon Regulates Persister Formation by Modulating Energy Metabolism in Staphylococcus aureus”.

The target in data set [1] is T1, MsaB-His (Staphylococcus aureus USA300 LAC, UniProt Q2FH36 1-66).
T1 sequence: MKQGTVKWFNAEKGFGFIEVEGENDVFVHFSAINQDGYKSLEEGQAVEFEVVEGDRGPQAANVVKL
Put plainly: EMSA; 5 mM MgCl2, poly(dI-dC); shift reversed by 100-fold unlabeled probe. To be noted: protein: recombinant; tags: 6xHis; label: biotin (5'); blunt.

The target of data set [2] is T1, MsaB-His. Put plainly: EMSA; 5 mM MgCl2, poly(dI-dC). To be noted: protein: recombinant, tags: 6xHis, blunt.
Data set [3] concerns the target T1, MsaB-His. Description: EMSA; 5 mM MgCl2, poly(dI-dC); shift reduced by 100-fold unlabeled probe. As to conditions: protein: recombinant; tags: 6xHis; label: biotin (5'). (Mobility shift assays separate free from complexed probe on a gel.)

B1: ccpE promoter probe (ccpE_EMSA) (dsDNA)
DNA 1: GTTAGTAATGAACTCATGAATGCTTGTGCCATGAAAGTTCAATAATTGAATAATTTATGGGG
DNA 2: CCCCATAAATTATTCAATTATTGAACTTTCATGGCACAAGCATTCATGAGTTCATTACTAAC
B1: in the data set with MsaB-His [1], the binding result is “binds”.

B2: gudB promoter probe (gudB_EMSA) (dsDNA)
DNA 1: GGAAATTCAATATGTTTGAAAGCGAATCATTAGGTAAAGAAGAGGCGAAAAGGATC
DNA 2: GATCCTTTTCGCCTCTTCTTTACCTAATGATTCGCTTTCAAACATATTGAATTTCC
Consider B2, for which, in the data set with MsaB-His [2] (label: biotin (5')), the binding result is “no binding”.

B3: ndh2 ssDNA probe (ndh2_EMSA) (ssDNA)
DNA: GTCTTTTTTGTGAACATCACAGGTTTTTACATAATTTAAAAGACTTAAATAACAAAATGATGATAAACTAGTATA
On to B3, for which the binding result with MsaB-His [3] is given as “binds”.

B4: ndh2 dsDNA, same region (dsDNA)
DNA 1: GTCTTTTTTGTGAACATCACAGGTTTTTACATAATTTAAAAGACTTAAATAACAAAATGATGATAAACTAGTATA
DNA 2: TATACTAGTTTATCATCATTTTGTTATTTAAGTCTTTTAAATTATGTAAAAACCTGTGATGTTCACAAAAAAGAC
Turning to B4, the binding result in the data set with MsaB-His [2] was “no binding”.
